Laboratory results taken from the supplement of paper PMC5998384.

Experiments:
HeLa Kyoto [1] = test: solubility in G1/S (NP-40 vs SDS abundance) (log2 ratio); higher = more soluble; details: cell cycle stage: G1/S
HeLa Kyoto [2] = test: melting temperature (median over replicates), in situ; higher = more thermally stable
HeLa Kyoto [3] = test: solubility change mitosis vs G1/S (difference of NP-40 vs SDS log2 ratios) (log2 ratio difference); higher = more soluble in mitosis
HeLa Kyoto [4] = test: thermal stability score vs G1/S (z-score of summed log2 fold changes over temperatures); higher = more thermally stable than in G1/S
[5] = cell cycle stage: early G1 (4.5 h after nocodazole release)
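Wherever melting temperature (median over replicates), in situ is given: HeLa Kyoto cells synchronized by double thymidine or nocodazole block, proteins quantified by TMT10plex mass spectrometry, three independent biological replicates.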
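Wherever solubility change mitosis vs G1/S (difference of NP-40 vs SDS log2 ratios) is given: synchronized HeLa Kyoto cells (double thymidine block for G1/S, nocodazole release for mitosis), protein amounts in NP-40 versus SDS lysates quantified by mass spectrometry, three biological replicates.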
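Wherever solubility in G1/S (NP-40 vs SDS abundance) is given: HeLa Kyoto cells arrested at G1/S by double thymidine block, proteins quantified by TMT10plex mass spectrometry in mild NP-40 versus SDS extracts, three biological replicates.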
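Wherever thermal stability score vs G1/S (z-score of summed log2 fold changes over temperatures) is given: synchronized HeLa Kyoto cells, proteins quantified by TMT10plex mass spectrometry, three biological replicates, mitosis taken 0.5 h after nocodazole release, G1/S directly after double thymidine block.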

Row | Substance | solubility in G1/S (log2) (HeLa Kyoto [1]) | melting temperature (HeLa Kyoto [2]; cell cycle stage: G1/S) [°C] | melting temperature (HeLa Kyoto [2]; cell cycle stage: mitosis) [°C] | solubility change mitosis (log2) (HeLa Kyoto [3]) | thermal stability score (HeLa Kyoto [4]; [5]) | thermal stability score (HeLa Kyoto [4]; cell cycle stage: mitosis)
1 | MWSGRSSFTSLVVGVFVVYVVHTCWVMYGIVYTRPCSGDANCIQPYLARRPKLQLSVYTTTRSHLGAENNIDLVLNVEDFDVESKFERTVNVSVPKKTRNNGTLYAYIFLHHAGVLPWHDGKQVHLVSPLTTYMVPKPEEINLLTGESDTQQIEAEKKPTSALDEPVSHWRPRLALNVMADNFVFDGSSLPADVHRYMKMIQLGKTVHYLPILFIDQLSNRVKDLMVINRSTTELPLTVSYDKVSLGRLRFWIHMQDAVYSLQQFGFSEKDADEVKGIFVDTNLYFLALTFFVAAFHLLFDFLAFKNDISFWKKKKSMIGMSTKAVLWRCFSTVVIFLFLLDEQTSLLVLVPAGVGAAIELWKVKKALKMTIFWRGLMPEFQFGTYSESERKTEEYDTQAMKYLSYLLYPLCVGGAVYSLLNIKYKSWYSWLINSFVNGVYAFGFLFMLPQLFVNYKLKSVAHLPWKAFTYKAFNTFIDDVFAFIITMPTSHRLACFRDDVVFLVYLYQRWLYPVDKRRVNEFGESYEEKATRAPHTD [CLPTM1L] | -0.0724 | 52.8 | 53.2 | -0.226 | -1.1 | -1.25
2 | MAAFLKMSVSVNFFRPFTRFLVPFTLHRKRNNLTILQRYMSSKIPAVTYPKNESTPPSEELELDKWKTTMKSSVQEECVSTISSSKDEDPLAATREFIEMWRLLGREVPEHITEEELKTLMECVSNTAKKKYLKYLYTKEKVKKARQIKKEMKAAAREEAKNIKLLETTEEDKQKNFLFLRLWDRNMDIAMGWKGAQAMQFGQPLVFDMAYENYMKRKELQNTVSQLLESEGWNRRNVDPFHIYFCNLKIDGALHRELVKRYQEKWDKLLLTSTEKSHVDLFPKDSIIYLTADSPNVMTTFRHDKVYVIGSFVDKSMQPGTSLAKAKRLNLATECLPLDKYLQWEIGNKNLTLDQMIRILLCLKNNGNWQEALQFVPKRKHTGFLEISQHSQEFINRLKKAKT [TRMT10C] | -0.0196 | 51.3 | 51.9 | -0.114 | 0.276 | 0.67
3 | MLPARCARLLTPHLLLVLVQLSPARGHRTTGPRFLISDRDPQCNLHCSRTQPKPICASDGRSYESMCEYQRAKCRDPTLGVVHRGRCKDAGQSKCRLERAQALEQAKKPQEAVFVPECGEDGSFTQVQCHTYTGYCWCVTPDGKPISGSSVQNKTPVCSGSVTDKPLSQGNSGRKDDGSKPTPTMETQPVFDGDEITAPTLWIKHLVIKDSKLNNTNIRNSEKVYSCDQERQSALEEAQQNPREGIVIPECAPGGLYKPVQCHQSTGYCWCVLVDTGRPLPGTSTRYVMPSCESDARAKTTEADDPFKDRELPGCPEGKKMEFITSLLDALTTDMVQAINSAAPTGGGRFSEPDPSHTLEERVVHWYFSQLDSNSSNDINKREMKPFKRYVKKKAKPKKCARRFTDYCDLNKDKVISLPELKGCLGVSKEGRLV [SMOC1] | 0.221 |  | 54.9 | -0.0568 | -1.94 | -1.17
4 | MSDTRRRVKVYTLNEDRQWDDRGTGHVSSTYVEELKGMSLLVRAESDGSLLLESKINPNTAYQKQQDTLIVWSEAENYDLALSFQEKAGCDEIWEKICQVQGKDPSVEVTQDLIDESEEERFEEMPETSHLIDLPTCELNKLEEIADLVTSVLSSPIRREKLALALENEGYIKKLLQLFQACENLENTEGLHHLYEIIRGILFLNKATLFEVMFSDECIMDVVGCLEYDPALAQPKRHREFLTKTAKFKEVIPITDSELRQKIHQTYRVQYIQDIILPTPSVFEENFLSTLTSFIFFNKVEIVSMLQEDEKFLSEVFAQLTDEATDDDKRRELVNFFKEFCAFSQTLQPQNRDAFFKTLAKLGILPALEIVMGMDDLQVRSAATDIFSYLVEFSPSMVREFVMQEAQQSDDDILLINVVIEQMICDTDPELGGAVQLMGLLRTLIDPENMLATTNKTEKSEFLNFFYNHCMHVLTAPLLTNTSEDKCEKDFFLKHYRYSWSFICTPSHSHSHSTPSSSISQDNIVGSNKNNTICPDNYQTAQLLALILELLTFCVEHHTYHIKNYIMNKDLLRRVLVLMNSKHTFLALCALRFMRRIIGLKDEFYNRYITKGNLFEPVINALLDNGTRYNLLNSAVIELFEFIRVEDIKSLTAHIVENFYKALESIEYVQTFKGLKTKYEQEKDRQNQKLNSVPSILRSNRFRRDAKALEEDEEMWFNEDEEEEGKAVVAPVEKPKPEDDFPDNYEKFMETKKAKESEDKENLPKRTSPGGFKFTFSHSASAANGTNSKSVVAQIPPATSNGSSSKTTNLPTSVTATKGSLVGLVDYPDDEEEDEEEESSPRKRPRLGS [PPP4R3B] | 0.0425 | 49.6 | 49.5 | -0.181 | 1.17 | 1.76
5 | MRSRVAVRACHKVCRCLLSGFGGRVDAGQPELLTERSSPKGGHVKSHAELEGNGEHPEAPGSGEGSEALLEICQRRHFLSGSKQQLSRDSLLSGCHPGFGPLGVELRKNLAAEWWTSVVVFREQVFPVDALHHKPGPLLPGDSAFRLVSAETLREILQDKELSKEQLVAFLENVLKTSGKLRENLLHGALEHYVNCLDLVNKRLPYGLAQIGVCFHPVFDTKQIRNGVKSIGEKTEASLVWFTPPRTSNQWLDFWLRHRLQWWRKFAMSPSNFSSSDCQDEEGRKGNKLYYNFPWGKELIETLWNLGDHELLHMYPGNVSKLHGRDGRKNVVPCVLSVNGDLDRGMLAYLYDSFQLTENSFTRKKNLHRKVLKLHPCLAPIKVALDVGRGPTLELRQVCQGLFNELLENGISVWPGYLETMQSSLEQLYSKYDEMSILFTVLVTETTLENGLIHLRSRDTTMKEMMHISKLKDFLIKYISSAKNV [POLG2] | -0.0655 |  | 54.6 | 0.206 | 0.753 | 1.26
6 | MPNWGGGKKCGVCQKTVYFAEEVQCEGNSFHKSCFLCMVCKKNLDSTTVAVHGEEIYCKSCYGKKYGPKGYGYGQGAGTLSTDKGESLGIKHEEAPGHRPTTNPNASKFAQKIGGSERCPRCSQAVYAAEKVIGAGKSWHKACFRCAKCGKGLESTTLADKDGEIYCKGCYAKNFGPKGFGFGQGAGALVHSE [CSRP1] | -0.0793 | 60.2 |  | -0.142 | -1.5 | -2.91
7 | MNRGFSRKSHTFLPKIFFRKMSSSGAKDKPELQFPFLQDEDTVATLLECKTLFILRGLPGSGKSTLARVIVDKYRDGTKMVSADAYKITPGARGAFSEEYKRLDEDLAAYCRRRDIRILVLDDTNHERERLEQLFEMADQYQYQVVLVEPKTAWRLDCAQLKEKNQWQLSADDLKKLKPGLEKDFLPLYFGWFLTKKSSETLRKAGQVFLEELGNHKAFKKELRQFVPGDEPREKMDLVTYFGKRPPGVLHCTTKFCDYGKAPGAEEYAQQDVLKKSYSKAFTLTISALFVTPKTTGARVELSEQQLQLWPSDVDKLSPTDNLPRGSRAHITLGCAADVEAVQTGLDLLEILRQEKGGSRGEEVGELSRGKLYSLGNGRWMLTLAKNMEVRAIFTGYYGKGKPVPTQGSRKGGALQSCTII [CNP] | 0.107 | 50.6 | 50.3 | -0.00285 | 1.08 | 0.579
8 | MFGKRKKRVEISAPSNFEHRVHTGFDQHEQKFTGLPRQWQSLIEESARRPKPLVDPACITSIQPGAPKTIVRGSKGAKDGALTLLLDEFENMSVTRSNSLRRDSPPPPARARQENGMPEEPATTARGGPGKAGSRGRFAGHSEAGGGSGDRRRAGPEKRPKSSREGSGGPQESSRDKRPLSGPDVGTPQPAGLASGAKLAAGRPFNTYPRADTDHPSRGAQGEPHDVAPNGPSAGGLAIPQSSSSSSRPPTRARGAPSPGVLGPHASEPQLAPPACTPAAPAVPGPPGPRSPQREPQRVSHEQFRAALQLVVDPGDPRSYLDNFIKIGEGSTGIVCIATVRSSGKLVAVKKMDLRKQQRRELLFNEVVIMRDYQHENVVEMYNSYLVGDELWVVMEFLEGGALTDIVTHTRMNEEQIAAVCLAVLQALSVLHAQGVIHRDIKSDSILLTHDGRVKLSDFGFCAQVSKEVPRRKSLVGTPYWMAPELISRLPYGPEVDIWSLGIMVIEMVDGEPPYFNEPPLKAMKMIRDNLPPRLKNLHKVSPSLKGFLDRLLVRDPAQRATAAELLKHPFLAKAGPPASIVPLMRQNRTR [PAK4] | 0.0713 | 51.3 | 50.5 | -0.000436 | 0.186 | 0.111
9 | UNC119B | 0.268 | 50.6 | 50.3 | -0.089 | -0.908 | -0.273
10 | RIF1 | -0.28 | 47.3 | 49.6 | 0.0253 | 2.16 | 5.52
